Laboratory results from patent US20250281630A1 (TORAY INDUSTRIES, published 2025).

T1: human CAPRIN-1 on the cell membrane surface of human cancer cells (human, UniProt Q14444 2-709)
T1 construct: whole, on cells
T1 sequence (looked up): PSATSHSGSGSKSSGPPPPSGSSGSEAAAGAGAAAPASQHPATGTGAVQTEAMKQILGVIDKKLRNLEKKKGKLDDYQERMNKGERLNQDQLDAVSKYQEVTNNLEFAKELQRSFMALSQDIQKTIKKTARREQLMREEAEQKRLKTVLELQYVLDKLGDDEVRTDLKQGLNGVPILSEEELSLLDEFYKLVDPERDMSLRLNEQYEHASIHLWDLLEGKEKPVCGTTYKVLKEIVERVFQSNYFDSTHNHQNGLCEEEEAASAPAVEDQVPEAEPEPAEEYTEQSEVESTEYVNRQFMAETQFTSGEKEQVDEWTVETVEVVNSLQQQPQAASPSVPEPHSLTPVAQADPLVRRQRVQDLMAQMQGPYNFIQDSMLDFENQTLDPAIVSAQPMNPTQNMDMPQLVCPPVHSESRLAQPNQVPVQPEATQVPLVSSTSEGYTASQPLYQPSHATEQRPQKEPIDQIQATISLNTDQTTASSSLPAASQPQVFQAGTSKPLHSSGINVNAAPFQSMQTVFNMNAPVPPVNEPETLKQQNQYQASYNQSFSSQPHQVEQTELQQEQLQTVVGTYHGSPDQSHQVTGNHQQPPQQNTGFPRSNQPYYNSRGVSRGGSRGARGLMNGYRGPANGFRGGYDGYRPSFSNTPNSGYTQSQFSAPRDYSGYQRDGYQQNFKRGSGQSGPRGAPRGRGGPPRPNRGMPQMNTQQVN

T2: mouse CAPRIN-1 on mouse cancer cells (mouse, UniProt Q60865 2-707)
T2 construct: whole, on cells
T2 sequence (looked up): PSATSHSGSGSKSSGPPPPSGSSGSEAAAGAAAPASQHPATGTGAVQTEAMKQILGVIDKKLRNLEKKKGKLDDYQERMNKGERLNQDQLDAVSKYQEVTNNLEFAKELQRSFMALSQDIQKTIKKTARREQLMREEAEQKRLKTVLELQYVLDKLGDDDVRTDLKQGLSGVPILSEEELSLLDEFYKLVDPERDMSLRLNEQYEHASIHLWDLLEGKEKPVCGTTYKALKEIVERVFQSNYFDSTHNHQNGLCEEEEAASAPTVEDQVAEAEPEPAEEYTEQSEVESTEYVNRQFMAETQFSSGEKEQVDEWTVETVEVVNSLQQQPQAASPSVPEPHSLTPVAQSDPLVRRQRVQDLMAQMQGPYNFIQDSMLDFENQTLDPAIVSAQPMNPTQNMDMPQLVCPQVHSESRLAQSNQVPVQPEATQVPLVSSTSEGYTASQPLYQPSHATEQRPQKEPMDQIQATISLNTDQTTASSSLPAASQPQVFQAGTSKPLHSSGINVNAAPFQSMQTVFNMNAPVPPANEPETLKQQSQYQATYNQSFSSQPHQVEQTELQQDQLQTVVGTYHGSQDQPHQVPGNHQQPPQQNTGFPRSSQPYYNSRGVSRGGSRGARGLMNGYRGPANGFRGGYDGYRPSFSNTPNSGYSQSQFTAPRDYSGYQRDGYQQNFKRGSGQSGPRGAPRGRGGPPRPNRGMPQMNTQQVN


Experiments:
[1] = target: T1, human CAPRIN-1 on the cell membrane …; assay: flow cytometry, BT474 cells
Method: The tube was left at 4° C. for 1 hour. After washing with PBS, Alexa 488-labeled anti-rabbit IgG (H+L) diluted 100-fold with PBS(-) containing 0.5% FBS (0.5% FBS-PBS(-)) was added thereto, and the tube was left at 4° C. for 1 hour. After washing with 0.5% FBS-PBS(-), the cells were reacted with BD Horizon Fixable Viability Stain (FVS) Reagents (FVS450, Becton, Dickinson and Company) to stain dead cells, and the fluorescence intensity was then measured using FACSFortessa™ (Becton, Dickinson and Company).

[2] = target: T2, mouse CAPRIN-1 on mouse cancer cells; assay: flow cytometry, Renca and 4T1 cells

Row | Binder | binding result [1] | binding result [2]
1 | Conjugate 19 (antibody, human IgG1, V domains shown, human IgG1 constant regions; also called conjugate with MMAE using humanized antibody #13) VH: GAELVRSGASVKMSCKASGYSFTDYNMYWVKQTPGQGLEWIGYIYPGNGGTNYNQKFKGKATLTADTSSSTAYMQISSLTSEDSAVYFCARDYDDGGYAMDYWGQGTTVTVSS VL: DIQMTQSPASLSASVGETVTITCRASGNIHNYLTWYQQKQGKSPQLLVYNAKTLADGVPSRFSGSGSGTQYSLKINRLQPEDFGSYYCQHFWNIPWTFGGGTKLNSR | binds | binds
2 | Conjugate 42 (antibody, human IgG1, V domains shown, human IgG1 constant regions; also called conjugate with MMAE using humanized antibody #36) VH: EVQLVESGGGLVQPGGSLRLSCAASGFSLSSHSLGWVRQAPGKGLEWIGDIRSGGSAYYANWAKGRFTISRDNSKNTLYLQMNSLRAEDTAVYYCTRTNGPSDLTNRLDLWGQGTLVTVSS VL: QVLTQSPSSLSASVGDRVTINCQASQSLYNNENLAWFQQKPGKVPKRLIYGASTLASGVSSRFSGSGSGTEFTLTISSLQCEDFAIYYCLGEFSCGSADCFAFGGGTKVEIK | binds | binds
3 | Conjugate 44 (antibody, human IgG1, V domains shown, human IgG1 constant regions; also called conjugate with MMAE using humanized antibody #38) VH: EVQLVESGGGLVQPGGSLRLSCAASGFSLSSHSLGWVRQAPGKGLEWIGDIRSGGSAYYANWAKGRFTISRDNSKNTLYLQMNSLRAEDTAVYYCTRTNGPSDLTNRLDLWGQGTLVTVSS VL: EQVLTQSPSSLSASVGDRVTINCQASQSLYNNENLAWFQQKPGKVPKRLIYGASTLASGVSSRFSGSGSGTEFTLTISNLQPEDFAIYYCLGEFSCGSADCFAFGGGTKVEIK | binds | binds
4 | Conjugate 127 (antibody, V domains shown, human IgG1 constant regions; also called conjugate with MMAE using humanized antibody #41) VH: EVQLVESGGGLVQPGGSLRLSCAASGFSLSSHSLGWVRQAPGKGLEWIGDIRSGGSAYYANWAKGRFTISRDNSKNTLYLQMNSLRAEDTAVYFCTRTNGPSDLTNRLDLWGQGTLVTVSS VL: EQVLTQSPSSLSASVGDRVTINCQASQSLYNNENLAWFQQKPGKVPKRLIYGASTLASGVSSRFSGSGSGTEFTLTISNLQPEDFAIYYCLGEFSCGSADCFAFGGGTKVEIK | binds | binds
5 | Conjugate 46 (antibody, human IgG1, V domains shown, human IgG1 constant regions; also called conjugate with MMAE using humanized antibody #40) VH: EVQLVESGGGLVQPGGSLRLSCAASGFSLSSHSLGWVRQAPGKGLEWIGDIRSGGSAYYANWAKGRFTISRDNSKNTLYLQMNSLRAEDTAVYYCTRTNGPSDLTNRLDLWGQGTLVTVSS VL: EIVLTQSPSSLSASVGDRVTINCQASQSLYNNENLAWFQQKPGKVPKRLIYGASTLASGVSSRFSGSGSGTEFTLTISNLQPEDFATYYCLGEFSCGSADCFAFGGGTKVEIK | binds | binds
6 | Conjugate 45 (antibody, human IgG1, V domains shown, human IgG1 constant regions; also called conjugate with MMAE using humanized antibody #39) VH: EVQLVESGGGLVQPGGSLRLSCAASGFSLSSHSLGWVRQAPGKGLEWIGDIRSGGSAYYANWAKGRFTISRDNSKNTLYLQMNSLRAEDTAVYFCTRTNGPSDLTNRLDLWGQGTLVTVSS VL: EIVLTQSPSSLSASVGDRVTINCQASQSLYNNENLAWFQQKPGKVPKRLIYGASTLASGVSSRFSGSGSGTEFTLTISNLQPEDFATYYCLGEFSCGSADCFAFGGGTKVEIK | binds | binds
7 | Conjugate 47 (antibody, human IgG1, V domains shown, human IgG1 constant regions; also called conjugate with MMAE using humanized antibody #41) VH: EVQLVESGGGLVQPGGSLRLSCAASGFSLSSHSLGWVRQAPGKGLEWIGDIRSGGSAYYANWAKGRFTISRDNSKNTLYLQMNSLRAEDTAVYFCTRTNGPSDLTNRLDLWGQGTLVTVSS VL: EQVLTQSPSSLSASVGDRVTINCQASQSLYNNENLAWFQQKPGKVPKRLIYGASTLASGVSSRFSGSGSGTEFTLTISNLQPEDFAIYYCLGEFSCGSADCFAFGGGTKVEIK | binds | binds
8 | Conjugate 88 (antibody, V domains shown, human IgG1 constant regions; also called conjugate with MMAE using humanized antibody #2) VH: EQSLVESGGGLVQPGGSLRLSCAASGFSLSSHSLGWVRQAPGKGLEWIGDIRSGGSAYYANWAKGRFTISRDNSKNTLYLQMNSLRAEDTAVYYCTRTNGPSDLTNRLDLWGQGTLVTVSS VL: QVLTQSPSSLSASVGDRVTINCQASQSLYNNENLAWFQQKPGKVPKRLIYGASTLASGVSSRFSGSGSGTEFTLTISSLQCEDFAIYYCLGEFSCGSADCFAFGGGTKVEIK | binds | binds
9 | Conjugate 43 (antibody, human IgG1, V domains shown, human IgG1 constant regions; also called conjugate with MMAE using humanized antibody #37) VH: EVQLVESGGGLVQPGGSLRLSCAASGFSLSSHSLGWVRQAPGKGLEWIGDIRSGGSAYYANWAKGRFTISRDNSKNTLYLQMNSLRAEDTAVYFCTRTNGPSDLTNRLDLWGQGTLVTVSS VL: QVLTQSPSSLSASVGDRVTINCQASQSLYNNENLAWFQQKPGKVPKRLIYGASTLASGVSSRFSGSGSGTEFTLTISSLQCEDFAIYYCLGEFSCGSADCFAFGGGTKVEIK | binds | binds
10 | Conjugate 8 (antibody, human IgG1, V domains shown, human IgG1 constant regions; also called conjugate with MMAE using humanized antibody #2) VH: EQSLVESGGGLVQPGGSLRLSCAASGFSLSSHSLGWVRQAPGKGLEWIGDIRSGGSAYYANWAKGRFTISRDNSKNTLYLQMNSLRAEDTAVYYCTRTNGPSDLTNRLDLWGQGTLVTVSS VL: QVLTQSPSSLSASVGDRVTINCQASQSLYNNENLAWFQQKPGKVPKRLIYGASTLASGVSSRFSGSGSGTEFTLTISSLQCEDFAIYYCLGEFSCGSADCFAFGGGTKVEIK | binds | binds
11 | Conjugate 126 (antibody, V domains shown, human IgG1 constant regions; also called conjugate with MMAE using humanized antibody #40) VH: EVQLVESGGGLVQPGGSLRLSCAASGFSLSSHSLGWVRQAPGKGLEWIGDIRSGGSAYYANWAKGRFTISRDNSKNTLYLQMNSLRAEDTAVYYCTRTNGPSDLTNRLDLWGQGTLVTVSS VL: EIVLTQSPSSLSASVGDRVTINCQASQSLYNNENLAWFQQKPGKVPKRLIYGASTLASGVSSRFSGSGSGTEFTLTISNLQPEDFATYYCLGEFSCGSADCFAFGGGTKVEIK | binds | binds
12 | Conjugate 125 (antibody, V domains shown, human IgG1 constant regions; also called conjugate with MMAE using humanized antibody #39) VH: EVQLVESGGGLVQPGGSLRLSCAASGFSLSSHSLGWVRQAPGKGLEWIGDIRSGGSAYYANWAKGRFTISRDNSKNTLYLQMNSLRAEDTAVYFCTRTNGPSDLTNRLDLWGQGTLVTVSS VL: EIVLTQSPSSLSASVGDRVTINCQASQSLYNNENLAWFQQKPGKVPKRLIYGASTLASGVSSRFSGSGSGTEFTLTISNLQPEDFATYYCLGEFSCGSADCFAFGGGTKVEIK | binds | binds
13 | Conjugate 123 (antibody, V domains shown, human IgG1 constant regions; also called conjugate with MMAE using humanized antibody #37) VH: EVQLVESGGGLVQPGGSLRLSCAASGFSLSSHSLGWVRQAPGKGLEWIGDIRSGGSAYYANWAKGRFTISRDNSKNTLYLQMNSLRAEDTAVYFCTRTNGPSDLTNRLDLWGQGTLVTVSS VL: QVLTQSPSSLSASVGDRVTINCQASQSLYNNENLAWFQQKPGKVPKRLIYGASTLASGVSSRFSGSGSGTEFTLTISSLQCEDFAIYYCLGEFSCGSADCFAFGGGTKVEIK | binds | binds
14 | Conjugate 15 (antibody, human IgG1, V domains shown, human IgG1 constant regions; also called conjugate with MMAE using humanized antibody #9) VH: AVTLDESGGGLQTPGGALSLVCKASGFTFSGYDMLWVRQAPGKGLEWVAGIGSTGGGTDYGAAVKGRATISRDNGQSTVRLQLNNLRAEDTATYYCAKVAGGCNSGYCRDSPGSIDAWGHGTEVIVS VL: AVTQQPASVSANPGETVKITCSGGGSRNYYGWYQQKSPGSVPVTVIYYDDQRPSNIPSRFSGALSGSTSTLTITGVQADDEAVYFCGSADSNTYEGSFGAGTTLTVL | binds | binds
15 | Conjugate 20 (antibody, human IgG1, V domains shown, human IgG1 constant regions; also called conjugate with MMAE using humanized antibody #14) VH: DAELVKPGASVKISCKASGYTFTDHSIHWVQQKPEQGLEWIGYISPGNGNIKYNEKFKGKATLTADKSSSTAYMQLNSLTSEDSAVYFCKRSLGRGGPYYFDYWGQGTTVTVSS VL: DIVLTQAAPSLPVTPGESVSISCRSSKSLLHSNGNTYLYWFLQRPGQSPQLLIYRMSNLASGVPDRFSGSGSGTAFTLRISRVEAEDVGVYYCMQHREYPVTFGSGPN | binds | binds
